B1: Probable thioesterase PNKD (Homo sapiens), Q8N490 (parent)
chain: MAAVVAATALKGRGARNARVLRGILAGATANKASHNRTRALQSHSSPEGKEEPEPLSPELEYIPRKRGKNPMKAVGLAWYSLYTRTWLGYLFYRQQLRRARNRYPKGHSKTQPRLFNGVKVLPIPVLSDNYSYLIIDTQAQLAVAVDPSDPRAVQASIEKEGVTLVAILCTHKHWDHSGGNRDLSRRHRDCRVYGSPQDGIPYLTHPLCHQDVVSVGRLQIRALATPGHTQGHLVYLLDGEPYKGPSCLFSGDLLFLSGCGRTFEGNAETMLSSLDTVLGLGDDTLLWPGHEYAEENLGFAGVVEPENLARERKMQWVQRQRLERKGTCPSTLGEERSYNPFLRTHCLALQEALGPGPGPTGDDDYSRAQLLEELRRLKDMHKSK

Variants of: B1
Details: with mk03_human MAPK3, P27361
Sequence of mk03_human MAPK3, P27361 (P27361 whole entry): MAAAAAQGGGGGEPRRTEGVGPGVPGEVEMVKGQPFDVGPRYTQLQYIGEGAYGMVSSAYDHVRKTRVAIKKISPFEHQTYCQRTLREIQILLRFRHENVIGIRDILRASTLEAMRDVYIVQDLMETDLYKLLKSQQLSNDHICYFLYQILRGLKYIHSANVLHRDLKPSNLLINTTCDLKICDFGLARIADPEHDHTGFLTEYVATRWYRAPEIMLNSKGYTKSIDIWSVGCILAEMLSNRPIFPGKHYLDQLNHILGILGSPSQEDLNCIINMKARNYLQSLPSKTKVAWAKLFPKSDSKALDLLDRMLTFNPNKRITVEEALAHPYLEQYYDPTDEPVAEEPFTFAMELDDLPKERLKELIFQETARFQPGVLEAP

| Variant | effect of a mutation on the interaction |
| --- | --- |
| S46A | disrupting interaction |

Reference: IntAct's records for PubMed 25066297
